Tests used:
[1] = target: human βNGF (R&D Systems, Inc.) (human, UniProt P01138 122-241); experiment: cell-based or functional assay
[2] = target: mouse βNGF (R&D Systems, Inc.) (mouse, UniProt P01139 122-241); experiment: cell-based or functional assay
Chain of mouse βNGF (R&D Systems, Inc.) (P01139 122-241 limits assumed): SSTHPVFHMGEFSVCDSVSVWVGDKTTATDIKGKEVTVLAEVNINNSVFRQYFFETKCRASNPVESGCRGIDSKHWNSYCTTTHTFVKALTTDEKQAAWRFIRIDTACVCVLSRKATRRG

Chain of human βNGF (R&D Systems, Inc.) (P01138 122-241 limits assumed): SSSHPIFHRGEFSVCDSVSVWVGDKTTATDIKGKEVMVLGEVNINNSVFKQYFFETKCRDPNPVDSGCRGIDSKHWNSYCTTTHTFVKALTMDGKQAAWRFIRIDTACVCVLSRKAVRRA

Row | Binder | IC50, method of Example 6 (Ca2+, HEK293-human trkA) [1] [µg/mL] | IC50, method of Example 6 (Ca2+, HEK293-human trkA) [2] [µg/mL] | IC50, method of Example 6 at a final NGF concentration of 50 ng/ml [1] [µg/mL]
1 | tanezumab (antibody, V domains shown) VH: QVQLQESGPGLVKPSETLSLTCTVSGFSLIGYDLNWIRQPPGKGLEWIGIIWGDGTTDYNSAVKSRVTISKDTSKNQFSLKLSSVTAADTAVYYCARGGYWYATSYYFDYWGQGTLVTVSS VL: DIQMTQSPSSLSASVGDRVTITCRASQSISNNLNWYQQKPGKAPKLLIYYTSRFHSGVPSRFSGSGSGTDFTFTISSLQPEDIATYYCQQEHTLPYTFGQGTKLEIKR | 0.17 | 0.23 | 
2 | 1-15(N52D-A)-Fab′ conjugated to 5 kDa PEG (Fab, V domains shown, 5 kDa PEG conjugated by a procedure similar to Example 13 (hinge region Cys)) VH: QVQLQQWGAGLLKPSETLSLTCAVYGGSFSGYYWSWVRQPPGKGLEWIGEIDHSGSTNNNPSLKSRVTISVGTSKNQFSLKLSSVTAADTAVYYCSRDGGPESGMGAFDIWGQGTMVTVSS VL: not shown |  |  | 0.03
3 | 1-15(N52D-A)-Fab′ conjugated to 10 kDa PEG (Fab, V domains shown, 10 kDa PEG conjugated by a procedure similar to Example 13 (hinge region Cys)) VH: QVQLQQWGAGLLKPSETLSLTCAVYGGSFSGYYWSWVRQPPGKGLEWIGEIDHSGSTNNNPSLKSRVTISVGTSKNQFSLKLSSVTAADTAVYYCSRDGGPESGMGAFDIWGQGTMVTVSS VL: not shown |  |  | 0.028
4 | PEGylated 1-15(N52D)-Fab′ (Fab, V domains shown, 40 kDa PEG (maleimide, SUNBRIGHT GL2-400MA) on Cys at position 230 of SEQ ID NO:10 (C226 based on EU index)) VH: QVQLQQWGAGLLKPSETLSLTCAVYGGSFSGYYWSWVRQPPGKGLEWIGEIDHSGSTNNNPSLKSRVTISVGTSKNQFSLKLSSVTAADTAVYYCSRDGGPESGMGAFDIWGQGTMVTVSS VL: not shown |  | 0.069 | 
